Legend:
AtSULTR4;1 ΔSTAS = biological target: T1, AtSULTR4;1 ΔSTAS (Arabidopsis thaliana, UniProt Q9FY46); test: […]SO4 uptake into proteoliposomes, […] min; format: biochemical; conditions: 13.3 µM 35SO4, pH 7.5 inside / 5.5 outside; labelled compound
T1 construct: gene SULTR4; STAS domain (residues 503-685) truncated, transmembrane domain only, C-terminal His6-tag cleaved by TEV, High Five insect cells, monomeric by SEC
T1 sequence (Q9FY46 1-502): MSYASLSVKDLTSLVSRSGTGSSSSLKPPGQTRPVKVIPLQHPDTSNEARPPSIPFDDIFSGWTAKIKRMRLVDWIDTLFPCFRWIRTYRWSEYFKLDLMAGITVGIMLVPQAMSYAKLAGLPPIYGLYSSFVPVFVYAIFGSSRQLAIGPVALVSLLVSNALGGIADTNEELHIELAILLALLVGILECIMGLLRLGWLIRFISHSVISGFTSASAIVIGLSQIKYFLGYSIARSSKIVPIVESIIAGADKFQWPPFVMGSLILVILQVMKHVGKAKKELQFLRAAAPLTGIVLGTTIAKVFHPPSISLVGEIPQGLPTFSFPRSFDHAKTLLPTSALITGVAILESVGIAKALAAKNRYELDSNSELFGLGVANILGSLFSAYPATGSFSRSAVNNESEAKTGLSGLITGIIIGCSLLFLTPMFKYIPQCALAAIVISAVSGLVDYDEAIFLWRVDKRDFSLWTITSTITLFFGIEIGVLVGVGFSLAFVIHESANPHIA

[1] = biological target: the molecule itself; test: cryo-EM structure; AtSULTR4;1 in GDN, 20 mM MES pH 6.0, 150 mM Na2SO4, 5 mM BME; refined with C2 symmetry; overall resolution 2.8 Å
[2] = biological target: the molecule itself; test: SEC; purified protein on SRT-3C SEC-300 column, 20 mM HEPES, 150 mM NaCl, 5 mM BME, 0.01% LMNG; elution profile compared with wild type

## O=S(=O)(O)O [SO4^2−]
AtSULTR4;1 ΔSTAS
  35SO4 uptake into proteoliposomes, 5 min: ΔSTAS retains a lower level of transport activity

B1: Arabidopsis thaliana sulfate transporter SULTR4;1 (AtSULTR4;1), wild type (natural protein, UniProt Q9FY46 24-685, looked up)
chain: SSLKPPGQTRPVKVIPLQHPDTSNEARPPSIPFDDIFSGWTAKIKRMRLVDWIDTLFPCFRWIRTYRWSEYFKLDLMAGITVGIMLVPQAMSYAKLAGLPPIYGLYSSFVPVFVYAIFGSSRQLAIGPVALVSLLVSNALGGIADTNEELHIELAILLALLVGILECIMGLLRLGWLIRFISHSVISGFTSASAIVIGLSQIKYFLGYSIARSSKIVPIVESIIAGADKFQWPPFVMGSLILVILQVMKHVGKAKKELQFLRAAAPLTGIVLGTTIAKVFHPPSISLVGEIPQGLPTFSFPRSFDHAKTLLPTSALITGVAILESVGIAKALAAKNRYELDSNSELFGLGVANILGSLFSAYPATGSFSRSAVNNESEAKTGLSGLITGIIIGCSLLFLTPMFKYIPQCALAAIVISAVSGLVDYDEAIFLWRVDKRDFSLWTITSTITLFFGIEIGVLVGVGFSLAFVIHESANPHIAVLGRLPGTTVYRNIKQYPEAYTYNGIVIVRIDSPIYFANISYIKDRLREYEVAVDKYTNRGLEVDRINFVILEMSPVTHIDSSAVEALKELYQEYKTRDIQLAISNPNKDVHLTIARSGMVELVGKEWFFVRVHDAVQVCLQYVQSSNLEDKHLSFTRRYGGSNNNSSSSNALLKEPLLSVEK
notes: A. thaliana SULTR4;1, codon-optimized gene (NCBI NM_121358.3); residues 1-69 and 645-685 are called the N- and C-termini and were not resolved; the model holds residues 70-644; Homodimer in the cryo-EM structure; also called WT; source: High Five (Trichoplusia ni) insect cells, baculovirus; purified (LMNG solubilisation, Talon cobalt resin, SEC); not shown: His6, C-terminal, cleaved
[1]
  stoichiometry N: 2

B2: AtSULTR4;1 R550E (natural protein, Arabidopsis thaliana, UniProt Q9FY46 24-685, looked up)
chain: SSLKPPGQTRPVKVIPLQHPDTSNEARPPSIPFDDIFSGWTAKIKRMRLVDWIDTLFPCFRWIRTYRWSEYFKLDLMAGITVGIMLVPQAMSYAKLAGLPPIYGLYSSFVPVFVYAIFGSSRQLAIGPVALVSLLVSNALGGIADTNEELHIELAILLALLVGILECIMGLLRLGWLIRFISHSVISGFTSASAIVIGLSQIKYFLGYSIARSSKIVPIVESIIAGADKFQWPPFVMGSLILVILQVMKHVGKAKKELQFLRAAAPLTGIVLGTTIAKVFHPPSISLVGEIPQGLPTFSFPRSFDHAKTLLPTSALITGVAILESVGIAKALAAKNRYELDSNSELFGLGVANILGSLFSAYPATGSFSRSAVNNESEAKTGLSGLITGIIIGCSLLFLTPMFKYIPQCALAAIVISAVSGLVDYDEAIFLWRVDKRDFSLWTITSTITLFFGIEIGVLVGVGFSLAFVIHESANPHIAVLGRLPGTTVYRNIKQYPEAYTYNGIVIVRIDSPIYFANISYIKDRLEEYEVAVDKYTNRGLEVDRINFVILEMSPVTHIDSSAVEALKELYQEYKTRDIQLAISNPNKDVHLTIARSGMVELVGKEWFFVRVHDAVQVCLQYVQSSNLEDKHLSFTRRYGGSNNNSSSSNALLKEPLLSVEK
notes: A. thaliana SULTR4;1 (NCBI NM_121358.3) with the charge-reversal mutation R550E on helix alpha1 of the STAS domain; Made by QuikChange on the wild-type construct; source: High Five insect cells, baculovirus; purified following the same protocol as wild type; not shown: His6, C-terminal, cleaved
[2]
  binding result: binds

B3: AtSULTR4;1 D547R (natural protein, Arabidopsis thaliana, UniProt Q9FY46 24-685, looked up)
chain: SSLKPPGQTRPVKVIPLQHPDTSNEARPPSIPFDDIFSGWTAKIKRMRLVDWIDTLFPCFRWIRTYRWSEYFKLDLMAGITVGIMLVPQAMSYAKLAGLPPIYGLYSSFVPVFVYAIFGSSRQLAIGPVALVSLLVSNALGGIADTNEELHIELAILLALLVGILECIMGLLRLGWLIRFISHSVISGFTSASAIVIGLSQIKYFLGYSIARSSKIVPIVESIIAGADKFQWPPFVMGSLILVILQVMKHVGKAKKELQFLRAAAPLTGIVLGTTIAKVFHPPSISLVGEIPQGLPTFSFPRSFDHAKTLLPTSALITGVAILESVGIAKALAAKNRYELDSNSELFGLGVANILGSLFSAYPATGSFSRSAVNNESEAKTGLSGLITGIIIGCSLLFLTPMFKYIPQCALAAIVISAVSGLVDYDEAIFLWRVDKRDFSLWTITSTITLFFGIEIGVLVGVGFSLAFVIHESANPHIAVLGRLPGTTVYRNIKQYPEAYTYNGIVIVRIDSPIYFANISYIKRRLREYEVAVDKYTNRGLEVDRINFVILEMSPVTHIDSSAVEALKELYQEYKTRDIQLAISNPNKDVHLTIARSGMVELVGKEWFFVRVHDAVQVCLQYVQSSNLEDKHLSFTRRYGGSNNNSSSSNALLKEPLLSVEK
notes: A. thaliana SULTR4;1 (NCBI NM_121358.3) with the charge-reversal mutation D547R on helix alpha1 of the STAS domain; Made by QuikChange on the wild-type construct; source: High Five insect cells, baculovirus; purified following the same protocol as wild type; not shown: His6, C-terminal, cleaved
[2]
  binding result: binds

B4: AtSULTR4;1 K353E (natural protein, Arabidopsis thaliana, UniProt Q9FY46 24-685, looked up)
chain: SSLKPPGQTRPVKVIPLQHPDTSNEARPPSIPFDDIFSGWTAKIKRMRLVDWIDTLFPCFRWIRTYRWSEYFKLDLMAGITVGIMLVPQAMSYAKLAGLPPIYGLYSSFVPVFVYAIFGSSRQLAIGPVALVSLLVSNALGGIADTNEELHIELAILLALLVGILECIMGLLRLGWLIRFISHSVISGFTSASAIVIGLSQIKYFLGYSIARSSKIVPIVESIIAGADKFQWPPFVMGSLILVILQVMKHVGKAKKELQFLRAAAPLTGIVLGTTIAKVFHPPSISLVGEIPQGLPTFSFPRSFDHAKTLLPTSALITGVAILESVGIAEALAAKNRYELDSNSELFGLGVANILGSLFSAYPATGSFSRSAVNNESEAKTGLSGLITGIIIGCSLLFLTPMFKYIPQCALAAIVISAVSGLVDYDEAIFLWRVDKRDFSLWTITSTITLFFGIEIGVLVGVGFSLAFVIHESANPHIAVLGRLPGTTVYRNIKQYPEAYTYNGIVIVRIDSPIYFANISYIKDRLREYEVAVDKYTNRGLEVDRINFVILEMSPVTHIDSSAVEALKELYQEYKTRDIQLAISNPNKDVHLTIARSGMVELVGKEWFFVRVHDAVQVCLQYVQSSNLEDKHLSFTRRYGGSNNNSSSSNALLKEPLLSVEK
notes: A. thaliana SULTR4;1 (NCBI NM_121358.3) with the charge-reversal mutation K353E on TM8 (core domain); Made by QuikChange on the wild-type construct; source: High Five insect cells, baculovirus; purified following the same protocol as wild type; not shown: His6, C-terminal, cleaved
[2]
  binding result: binds

From article PMC8298490, “Structure and function of an Arabidopsis thaliana sulfate transporter” (Nature Communications, 2021)
